Test results from the nanobody polyreactivity screen of Harvey et al. (2022).

Assay: yeast display, Sf9 membrane polyspecificity reagent, FACS + sequencing; frameworks hold sequencing errors
In short: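 A nanobody's polyreactivity label depends on the gate it was sorted from. Yeast display cells were stained with 10% biotinylated, detergent-solubilized Sf9 membrane reagent for 1 hour at 4 °C, enriched on streptavidin microbeads and sorted by FACS. The low and high (top ~1%) gates were set on anti-HA fluorescence for expression and streptavidin fluorescence for reagent binding.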
In the case of “QVQLVESGGGLDQAVGSLPLSCAASGRTFYLNTRGWYREAPWKEREFVAAISATAGRTYYADSVKGRFTISRDNAKNTVYLQMYSLKPEDTAVYYCAAVPLRIRWPNSSPALDYWGQGTQVTVSS”, the “polyreactivity (PSR sort gate)” value is reported as “high polyreactivity”.
In the case of “QVQLVESGGGLDQAVGSLRLSSAASGTTFDKNDMGLYRQAPAKERELVAAISGGSTNYADSVKGRFTISRDNAKNTVYLQMNSLKPEDTAVYYCAARPHAHSDYWGQGTQVTVSS”, the “polyreactivity (PSR sort gate)” value is reported as “low polyreactivity”.
For “QVQLVESGGGLEQAGGRLRLSCAASGFTFDFYAMGWYRQAPGKERQLVAAISKNDGTTYYADSVKGRFTISRDNAKNTVYLQMNSLKPEDTAVYYCAAESGYPVYTYVSSGDYWGQGTQVTVSS”, the “polyreactivity (PSR sort gate)” value was “low polyreactivity”.
With “QVQLVESGGGLFHAGGSLRLSCAASGSIFVRNVMGGYRQAPGKERELVAAISRSGVSTYYADSVKGRFTISRDNAKNTVSLQMNSLKPEDTAVSYCNAGWRRRNSTGYPWGYDYWGQGTQVTVSS” the “polyreactivity (PSR sort gate)” value was “high polyreactivity”.
In the case of “QVQLVESGGGLFKAGGSLRLSCAASGLIFWGYTMAWSRQAPGKERELVAAISRRGGRTYYAASVMGRFTISRDNAKNTVYLQMNTLKPEDTAVDYCKADITSSGPKSDYWGQGTQVTVSS”, the “polyreactivity (PSR sort gate)” value is reported as “high polyreactivity”.
For “QVQLVESGGGLFKAGGSLRLSCAASGRTFRGYTMGWYRQAPGKERELVAAITSGTRTNYADSVKGRFTISRDNAKNTVYLQMNSLKPEYTAVYYGAARDYIRPRYRPYDYWGHGTQVTVSS”, the “polyreactivity (PSR sort gate)” value was “high polyreactivity”.
In the case of “QVQLVESGGGLFKEGGSLRLSCAASASYFWFNAMGWYRQAPGKEREFGASISRSGGTTYYADSVKGRFTISRDNAKNTVYLQMKSVIPEDTAVYYCNARAFGTGVGTGYFGKDRYDYWGQGSQVTVSS”, the “polyreactivity (PSR sort gate)” value is reported as “low polyreactivity”.
In the case of “QVQLVESGGGLFQAGGILRLSCAASGYTFPDYAMGWYRQAPGKEREFVATISWSGTSTYYADSVKGRFTISRDNAKNTVYLQMNSLTTEDTAVYYCNKTPSSWPDLYSYNYWGQGTQVTVSS”, the “polyreactivity (PSR sort gate)” value is reported as “low polyreactivity”.
In the case of “QVQLVESGGGLFQAGGRLRLSCAPSGSNFVGYVMGWYRQAPGKERELVARIRWGGGRTYYADSVKGRFTISRDNAKNTVYLQMNSLKPEDTAVYFCAAETWWRTRIYDYWGQGTQGTVSS”, the “polyreactivity (PSR sort gate)” value is reported as “high polyreactivity”.
With “QVQLVESGGGLFQAGGSHRLSCAASGRIFPSYAMGWYRQAPGTQRELVAAIPRGGASTYYADSVKGRFTISRDIAQNTVYLQMNSLKPEDTAVYYCAARRSYTYGRDYWGQGTQVTVSS” the “polyreactivity (PSR sort gate)” value was “high polyreactivity”.
For “QVQLVESGGGLFQAGGSLRISCAASGRTFSYYAMGWYRQAPVKERELVAAISWSGVITYYADSVKGRFTISRDNAKNTVYLQMNSMKPEDTAVYYCASRPYWSEFDYDYWGQGTQVTLSS”, the “polyreactivity (PSR sort gate)” value was “low polyreactivity”.
With “QVQLVESGGGLFQAGGSLRLICAASGITFEYNTMGWYRQAAGKERELVAAITSDGGSTYYADSVKGRFSISRDNAKNTVYLQMNSLKPEDTAVYYFAAVFYDQYYYWGQGTQVTVSS” the “polyreactivity (PSR sort gate)” value was “high polyreactivity”.
In the case of “QVQLVESGGGLFQAGGSLRLICAASGLIINGNAMGWYRQAPGKERELVADITGSSVRTYYADSVKGRFTISRDNAKNTVYLQMNSLKPEDTAVYYCAKDPDKVDYVDMDYWGQGTQVTVSS”, the “polyreactivity (PSR sort gate)” value is reported as “low polyreactivity”.
In the case of “QVQLVESGGGLFQAGGSLRLSCAASGRIFGSYAMGWYRQAPGKERELVAAIFSAGSTYYADSVKGRFTISRDNAKNTVYLQMNSLKPEDTAVYYCAAGAYWPWGEDYWGQATQVTVSS”, the “polyreactivity (PSR sort gate)” value is reported as “high polyreactivity”.
In the case of “QVQLVESGGGLFQAGGSLRLSCAASGRIFHGYDMGWYRQAPGKERELVAAITWRGGSTYADSVKGRFTISRDNGKNTVYLQMNSLKPEDTAVYYCAADTVYYGYFFYYWGQVTQVTVSS”, the “polyreactivity (PSR sort gate)” value is reported as “high polyreactivity”.
With “QVQLVESGGGLFQAGGSLRLSCAASGRTFCFYTMGWYRQAPGKASELVAAISSGGSTNYADSVKGRFTISRDNAKNTVYLQMNSLKPEDTAVYYCNARFPVCPSEDAVWYYPKFDYWGQGTQVTVSW” the “polyreactivity (PSR sort gate)” value was “low polyreactivity”.
For “QVQLVESGGGLFQAGGSLRLSCAASGRTFCPYTMGWYRQAPGKERELVAVISSNDGSTDYADSVKGRFTFSRDNAKNTVYLQMNSLKPEDTAVYYCAAEVYFGYYGGYGYWGQGTQVTVSS”, the “polyreactivity (PSR sort gate)” value was “low polyreactivity”.
With “QVQLVESGGGLFQAGGSLRLSCAASGRTFSHNGMGWYRQAPGKERELVATINRGGNTYYADSVKGRFTISRDNAKNTVYLQMNSLKPEDTAVYYCAARRSFLFDEGNYWGQGTQVTVSS” the “polyreactivity (PSR sort gate)” value was “low polyreactivity”.
In the case of “QVQLVESGGGLFQAGGSLRLSCAASGRTFYKYAMGWYRQAPGKERELVATITSGGSTNYADSVKGRFTISRDNAKNTVYLQLNCLKPEETAVYYFAARGHIYKIRDPYWTHDFWGQGTQVTVSS”, the “polyreactivity (PSR sort gate)” value is reported as “low polyreactivity”.
In the case of “QVQLVESGGGLFQAGGSLRLSCAASGRTLLGNAMVWYRQAPGKEREFVAAISYRGGSTYYADSVKGRFTISRDYAKNTVYLQMKSLKPEDTAVYYCAASSFKYSRFDYWGQGTQVTVSS”, the “polyreactivity (PSR sort gate)” value is reported as “low polyreactivity”.
With “QVQLVESGGGLFQAGGSLRLSCAASGRTLRRNALGWYRQAPWKERELVAAISTGGGSTYYADSVKGRFTISRDYAKKTVYLQINSLNPEDSAVYYCAAVYSQSTKRYELYYWGQGTQVTVSS” the “polyreactivity (PSR sort gate)” value was “high polyreactivity”.
For “QVQLVESGGGLFQAGGSLRLSCAASGRTVVGYAMGWYRQAPGKERELVAAFTGSGGRTYDADSVKGRFTISRDNAKNTVYLQMKSLKPEDTAVYYCNNVYRFSSGAYLYDYWVQGTQVTVSS”, the “polyreactivity (PSR sort gate)” value was “high polyreactivity”.
For “QVQLVESGGGLFQAGGSLRLSCAASGSIFAWYAMGWYRQAPGKERELVAVITSGGSTNYADSVKGRFTISRDNEKNTVYLQMNSLKPEDTAVYYCAAGSYYSWYPFDYWGQGTQVTVSS”, the “polyreactivity (PSR sort gate)” value was “low polyreactivity”.
In the case of “QVQLVESGGGLFQAGGSLRLSCAASGSIFRAYAMVWYRQAPGKERELVAAITRGGSTNYADSVKGRFTISRDNAKNTVYLQMNSLKPEDTAVYYCAAQNYWYYPRRFDYWGQGTQVTVSS”, the “polyreactivity (PSR sort gate)” value is reported as “high polyreactivity”.
In the case of “QVQLVESGGGLFQAGGSLRLSCAASGSIFRYYAMGWYRQAPGKERELVARISWRGGSTYADSVKGRFTISRDNAKNTVYLQMNSLKPEDTAVYYCAGVLAVGSYDYWGQGTQVTVSS”, the “polyreactivity (PSR sort gate)” value is reported as “low polyreactivity”.
With “QVQLVESGGGLFQAGGSLRLSCAASGSIFVGYAMGWYRQAPGKERELVAAITNSGGRTYYADSVKGRFTISRDNAKNTVYLQMNSLKPEDTAVYYCNRVTGKYRYWVGFEYWGQGTQVTVSS” the “polyreactivity (PSR sort gate)” value was “high polyreactivity”.
In the case of “QVQLVESGGGLFQAGGSLRLSCAASGSISIKNAMGWYRQAPGKERELVATITYNGGSTYYADSVKGRFTISRDNAKNTVYLQMNSLKPEDTAVYYCARDAFEPYDVGEYYYWGQGTQVTVSS”, the “polyreactivity (PSR sort gate)” value is reported as “low polyreactivity”.
With “QVQLVESGGGLFQAGGSLRLSCAASGSTFIYYVMGWYRQAAGKVWELVAAISTSGGRTYYADSVKGRYTISRDNAMNTVSLLMNSLKPVVTAVYYCAAVARTNGSIKFESWGQGTQVTVSS” the “polyreactivity (PSR sort gate)” value was “high polyreactivity”.
In the case of “QVQLVESGGGLFQAGGSLRLSCAASGSTFPYNAMGWYRQAPGKERELVAAITWRAGRTYYADSVKGRFTISRDNAKNTVYLQMNSLKPEDTAVYSCAKSYQRGVNHYEYWGQGTQVTVSS”, the “polyreactivity (PSR sort gate)” value is reported as “high polyreactivity”.
For “QVQLVESGGGLFQAGGSLRVSCAASGRIFFPYAMGWYRQAPGKERELVASIRGGGSTSYADSVKGRFTFSRDNAKNTVYLQMNSLKPEDTAVYYCAATPQAYWVLWSTYYTYYYWGQGTQVTVSS”, the “polyreactivity (PSR sort gate)” value was “high polyreactivity”.
For “QVQLVESGGGLFQAGGSLSLSCAASGRTLWLYTKRWYTQAPGKEWELVARIRSGGSTYYADSVKGRFTISRDNAKNTVYLQMNSLKPEDTAVYYCAVGSRYYGRGYYYWGQGTQVTVSW”, the “polyreactivity (PSR sort gate)” value was “high polyreactivity”.
In the case of “QVQLVESGGGLFQAGGTHRLSCAASGFISKYYAMGWYRQAPGKERELVSSISRDGSTSYADSVKGRFTISRDNAKNTVYLQMNSLKAEDSAVYYCAAPSYRTRYYYWGQGTQVTVSS”, the “polyreactivity (PSR sort gate)” value is reported as “high polyreactivity”.
With “QVQLVESGGGLFQAGRSLRISCAASGFIFSQNTMGWYRQAPGKEWELVAAISKSRGTTYYADSVKGRYTITRDNAKNTVYLQMYSLKPEDTAVYYCAARIQWPTWSLYYYWGQGTQVTVSS” the “polyreactivity (PSR sort gate)” value was “high polyreactivity”.
With “QVQLVESGGGLFQAGVSLRLSCAASGSTIGVNAMGWSRKAPGKERELVAAISRGGGRTYYADSVKWRFTISRDIAKKTVYLQMICLKPEDTAVYYCNTDFGARMGYWGQGTEVTVSS” the “polyreactivity (PSR sort gate)” value was “high polyreactivity”.
In the case of “QVQLVESGGGLFQARGSLRLSCAASGLTFWYYDMGWYRQAPGKERELFAAINSGGSTYYADSEKGRFTISRDNAKNTVYLEINRLKPEDTAVYYCNKDFSKTWRYASYYYWGQGTQVTVSS”, the “polyreactivity (PSR sort gate)” value is reported as “low polyreactivity”.
For “QVQLVESGGGLFQEGGSLRLSCAASGSIFNGYAMGWYRQAPGKEREFVDAITFSATSTYYADSVKRRFTLSRDNAKNTVYLQMNSLKPEDTAVYYCAVAVPLSRYWWRRTYDYWGQGTQVTVSS”, the “polyreactivity (PSR sort gate)” value was “low polyreactivity”.
With “QVQLVESGGGLFQEGGSLRLSCAASGSTFSVNAMGWYRQAPGKERELVAAISKRVGSTYYADSVKGRFTISRDNAKNTVYLQMNSLKPEDTAVYYCAAVIVHYGRAYDYWGQGTQVTVSS” the “polyreactivity (PSR sort gate)” value was “high polyreactivity”.
For “QVQLVESGGGLGQAGGSLRLSCAASGFIFGSYAMGWYRQAPGKARELVAAISWSGASTYYADSVKGRFTISRDNAKKTVYLQMNSLIPEDTAVYYCAAVSRYGWYDYWGQGTQVTVSS”, the “polyreactivity (PSR sort gate)” value was “high polyreactivity”.
For “QVQLVESGGGLGQAGGSLRLSCAASGFIFVWYAMGWYRQAPGKERELVAAINWSGGHTYYADSVKGRFTISRDNSKNTVYLQMNSLKPEDTAVYYWNADSLWYWFYPYNYWGQGTQVTVSS”, the “polyreactivity (PSR sort gate)” value was “low polyreactivity”.
In the case of “QVQLVESGGGLGQAGGSLRLSCAASGFTFSSNAMGWYRQAPGNERALVAAISGNGGITYYADSVKGRFTISRDNAKNTVYLQMNCLKPEDTAVDYCAAEAYRYAWYDYWGQGTQVTVSS”, the “polyreactivity (PSR sort gate)” value is reported as “high polyreactivity”.
In the case of “QVQLVESGGGLGQAGGSLRLSCAASGFTYYYYAMGWYIQAPRKDRELVAAISGGGGSTYYADSVKGRFTLSRDNAKNTVYLQMNSLKQVDTAVYYCAAVGSWRYYYDYDYWGQGTQVNVSS”, the “polyreactivity (PSR sort gate)” value is reported as “high polyreactivity”.
In the case of “QVQLVESGGGLGQAGGSLRLSCAASGLTFTKNVMGWSSQAPGKERELVAVISRSGGSTYYADSVKGRFTISRDNAKNTVYLQMISLKPEDTAVYYCNVKGPGPSRGNYWGQGTQVTVSS”, the “polyreactivity (PSR sort gate)” value is reported as “low polyreactivity”.
With “QVQLVESGGGLGQAGGSLRLSCAASGRIFRYNAMGWYRQAPGKERELVAAITSGTGTNYADSVKGRFTISRDNAKNTVYLQMNSLKPEDTAVYYCNKVRKSYRYDYWGQGTQVTVSS” the “polyreactivity (PSR sort gate)” value was “low polyreactivity”.
